Reference: US7345022B2, “Anti-fibril peptides” (Board of Supervisors of Louisiana State University and …, priority 2002, dated 2008)
*1 amine or outer side, *2 acyl side, *3 side chain or, on linkers, in order; H or OH if unused. Where no end group is shown, it is not given here. [ ]: non-standard residue; d: D form. Dbzg = C-alpha,alpha-dibenzylglycine, O=C(C(Cc1ccccc1)(Cc1ccccc1)N[*:1])[*:2]; Dibg = C-alpha,alpha-diisobutylglycine, CC(C)CC(CC(C)C)(N[*:1])C(=O)[*:2]; Dpg = CCCC(N)(CCC)C(=O)O

Experiments:
PC-12 cells = details: MTT, reported by Pallitto et al.; cited from earlier work
[1] = prior pentapeptide inhibitors of Aβ1-40 fibril formation; cited from earlier work
[2] = Self-aggregation of the peptide; format: physicochemical
Procedure: Other strategies have included combinatorial approaches to screen short pentapeptides with L- or D-amino acids to develop small, mostly hydrophobic, inhibitors of Aβ1-40 fibril formation. […] Thus, these peptides can themselves become part of high order aggregates.
(§1) wherein Dibg is C^α,α-diisobutylglycine; Dbzg is C^α,α-dibenzylglycine; and Dpg is C^α,α-dipropylglycine. The AMY-1 peptide inhibits aggregation at concentrations of ˜5 μM when incubated with the amyloidogenic peptide Aβ10-35 in phosphate buffer at 37° C., under conditions where the Aβ10-35 peptide alone would form amyloid fibrils. […] AMY-1 is also depicted in FIG. 3. FIG. 4 depicts the manner in which AMY-1 blocks further extension of a growing β-sheet formed from the Aβ peptide.
(3) AMY-2 self-aggregates at 50 μM.

[3] = test system: preformed β-amyloid fibrils; test: Dissolution of preformed fibrils (SPM and TEM); format: biochemical; details: preliminary
Procedure: Preliminary experiments have confirmed that the novel peptides can promote the dissolution of existing fibrils. The ability of the peptide AMY-1 to dissolve preformed fibrils was assessed with both scanning probe microscopy (SPM) and transmission electron microscopy (TEM). […] A twisting appeared in the middle of the length of the fibril, as if the AMY-1 peptide was interpolating into it.

Aβ1-40 = Aβ1-40 (Homo sapiens, UniProt P05067); test: Interaction with Aβ1-40: aggregate and fibril formation (visual, scanning probe microscopy); format: biochemical; details: for product of the interaction with Aβ1-40: preliminary studies
Procedure: (3) AMY-2 self-aggregates at 50 μM. The interaction of β-Amyloid and AMY-2 is apparent visually. […] SPM images were taken of adsorbed peptide material on a hydrophilic surface (mica or muscovite). […] These non-fibrillar aggregates were ˜100 nm in height and appeared as clusters of aggregated peptide material. […] Another study to explore the later β-Amyloid aggregation (i.e., fibril formation) produced an image of elongated fibrils greater than 10 μm long and 8 nm high.

Aβ10-35 = molecular target: T1, Aβ10-35 (Homo sapiens, UniProt P05067); test: Inhibition of Aβ10-35 aggregation on incubation in phosphate buffer; format: biochemical; details: incubated with Aβ10-35 in phosphate buffer at 37° C.
T1 construct: incubated with the amyloidogenic peptide Aβ10-35 in phosphate buffer at 37° C
Procedure: as §1

[4] = adsorbed on hydrophilic surface (mica or muscovite), β-Amyloid1-40

Aβ1-40, sequence (P05067 672-711 limits assumed): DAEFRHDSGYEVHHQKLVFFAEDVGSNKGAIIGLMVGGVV
preformed β-amyloid fibrils, sequence (P05067 681-706 limits assumed): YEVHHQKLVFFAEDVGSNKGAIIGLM

Question: Which results are given for KLVFF?
Answer: protective effect against Aβ toxicity (PC-12 cells): protective effect against Aβ toxicity; self-aggregation (literature) [1]: aggregate and form insoluble precipitates

Question: With KLVF (listed as Homo sapiens) as the substance, how does the “protective effect against Aβ toxicity” value (PC-12 cells) read?
Answer: The value was “protective effect against Aβ toxicity”.

Question: What does the source list for “Lys-Dibg-Val-Dbzg-Phe-Dpg-(Lys)6-NH2 [AMY-1]”?
Answer: self-aggregation [2]: does not aggregate with itself; effect on preformed fibrils, SPM image ([3]; SPM at 10×10 μm^2, on mica): less adsorbed Aβ protein on mica; effect on preformed fibrils, TEM ([3]; preformed β-amyloid, TEM): the fibrillar structures were substantially frayed; fibril formation after long incubation with Aβ1-40 (Aβ1-40; 4.5 month-incubation, preliminary, data not shown): no massive fibrils were formed; product of the interaction with Aβ1-40 (Aβ1-40; data not shown): small, non-fibril aggregate; concentration at which the peptide inhibits aggregation (Aβ10-35): ~5 µM

Question: Which results are given for “(Lys)7-Dibg-Val-Dbzg-Phe-Dpg-NH2 (KKKKKKK[Dibg]V[Dbzg]F[Dpg]-NH2; N-terminus assumed; SMILES CCCC(CCC)(NC(=O)[C@H](Cc1ccccc1)NC(=O)C(Cc1ccccc1)(Cc1ccccc1)NC(=O)[C@@H](NC(=O)C(CC(C)C)(CC(C)C)NC(=O)[C@H](CCCCN)NC(=O)[C@H](CCCCN)NC(=O)[C@H](CCCCN)NC(=O)[C@H](CCCCN)NC(=O)[C@H](CCCCN)NC(=O)[C@H](CCCCN)NC(=O)[C@@H](N)CCCCN)C(C)C)C(N)=O) [AMY-2]”?
Answer: concentration at which the peptide self-aggregates ([2]; preliminary studies, data not shown): 50 µM; fibril formation (later aggregation study, image) (Aβ1-40; 1:1 ratio of 50 μM β-Amyloid and peptide): no fibril formation; visual appearance of the solution (Aβ1-40; added to β-amyloid at 1:1 ratio, 50 μM each, room temperature): the solution rapidly turned opaque; height of the non-fibrillar aggregates (SPM) (Aβ1-40; [4]): ~100 nm; morphology of the interaction product (SPM images) (Aβ1-40; [4]): large, amorphous aggregates; product of the interaction with Aβ1-40 (Aβ1-40; data not shown): large, non-fibril aggregate
